Source: patent US20180306789A1 (IMMATICS BIOTECHNOLOGIES, published 2018)

Biological target: HLA-A*02-presented DCAF4L2-001 on target cells (human)
Assay: cell-based or functional assay

EC50 of target peptide titration (IFNγ release) [nM] | Binder
~11.8 | TCR R53P2A9 (TCR, V domains shown) V domain 1: QTVTQSQPEMSVQEAETVTLSCTYDTSESDYYLFWYKQPPSRQMILVIRQEAYKQQNATENRFSVNFQKAAKSFSLKISDSQLGDAAMYFCAYNSYAGGTSYGKLTFGQGTILTVHP V domain 2: DAGVTQSPTHLIKTRGQQVTLRCSPISGHKSVSWYQQVLGQGPQFIFQYYEKEERGRGNFPDRFSARQFPNYSSELNVNALLLGDSALYLCASSLDGTSEQYFGPGTRLTVTE
~8.5 | TCR R52P2G11 (TCR, V domains shown) V domain 1: RGNGKNQVEQSPQSLIILEGKNCTLQCNYTVSPFSNLRWYKQDTGRGPVSLTIMTFSENTKSNGRYTATLDADTKQSSLHITASQLSDSASYICVVSAYGKLQFGAGTQVVVTP V domain 2: DAGVIQSPRHEVTEMGQEVTLRCKPISGHNSLFWYRQTMMRGLELLIYFNNNVPIDDSGMPEDRFSAKMPNASFSTLKIQPSEPRDSAVYFCASSLGSPDGNQPQHFGDGTRLSILE
~3.6 | TCR R36P3F9 (TCR, V domains shown) V domain 1: SQQGEEDPQALSIQEGENATMNCSYKTSINNLQWYRQNSGRGLVHLILIRSNEREKHSGRLRVTLDTSKKSSSLLITASRAADTASYFCATVSNYQLIWGAGTKLIIKP V domain 2: EAQVTQNPRYLITVTGKKLTVTCSQNMNHEYMSWYRQDPGLGLRQIYYSMNVEVTDKGDVPEGYKVSRKEKRNFPLILESPSPNQTSLYFCASSSTSGGLSGETQYFGPGTRLLVLE
